This data set addresses Ago2 PAZ domain (human, UniProt Q9UKV8 227-371). Kind of data set: ITC.

Ago2 PAZ domain, sequence (Q9UKV8 227-371): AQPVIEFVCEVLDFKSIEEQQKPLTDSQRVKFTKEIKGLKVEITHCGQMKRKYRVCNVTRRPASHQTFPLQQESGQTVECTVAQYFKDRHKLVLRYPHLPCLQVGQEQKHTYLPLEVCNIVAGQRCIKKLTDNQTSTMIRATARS

Regarding AGAGUCACGCUUU (ssRNA) [native RNA], the affinity, expressed as Kd, was 600 nM.

(Values after PMC6391183.)
